Reference: patent US20250263504A1 (Takeda / Millennium, published 2025)
Where “and” joins values, the source holds several entries; their conditions need not be identical. Identical values can stand only once.

Tests used:
plasma kallikrein (pKal) [1] = target: T1, plasma kallikrein (pKal) (UniProt P03952 20-390; P03952 391-638, limits assumed); assay: enzyme inhibition of human pKal: rate (F/s) against antibody concentration (0 to 10 nM), fit to the tight-binding equation printed in the panel; K is Ki,app. Columns are coefficient, std. error, t, P. The unit is taken from the concentration axis '[nM]' [CONT'D) B. (right panel]
T1 construct: the description speaks of human pKal; also called active pKal
T1 sequence (P03952 20-390 limits assumed, form in doubt, chain 1 of 2): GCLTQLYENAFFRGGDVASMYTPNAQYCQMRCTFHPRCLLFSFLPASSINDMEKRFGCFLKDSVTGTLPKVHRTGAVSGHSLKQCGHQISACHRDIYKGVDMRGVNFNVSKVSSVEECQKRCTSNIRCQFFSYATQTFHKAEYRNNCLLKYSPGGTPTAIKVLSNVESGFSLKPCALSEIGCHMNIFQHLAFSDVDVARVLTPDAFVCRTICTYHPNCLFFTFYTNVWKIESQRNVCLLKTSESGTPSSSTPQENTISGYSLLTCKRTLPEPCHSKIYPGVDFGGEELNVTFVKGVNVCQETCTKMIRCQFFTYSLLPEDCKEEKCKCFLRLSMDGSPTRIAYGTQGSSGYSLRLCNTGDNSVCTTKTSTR
T1 sequence (P03952 391-638 limits assumed, form in doubt, chain 2 of 2): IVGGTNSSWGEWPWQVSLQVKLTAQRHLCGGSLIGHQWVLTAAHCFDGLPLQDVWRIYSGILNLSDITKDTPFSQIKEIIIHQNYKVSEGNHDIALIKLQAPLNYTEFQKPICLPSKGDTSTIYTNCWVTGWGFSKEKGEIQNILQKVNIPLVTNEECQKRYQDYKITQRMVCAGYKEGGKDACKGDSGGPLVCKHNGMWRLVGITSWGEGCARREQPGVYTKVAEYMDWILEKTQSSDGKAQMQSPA

Factor XIIa (FXIIa) [2] = target: T2, Factor XIIa (FXIIa) (UniProt P00748 20-372; P00748 373-615, limits assumed); assay: enzyme inhibition: rate (F/s) against antibody concentration (0 to about 9000 pM), fit to the tight-binding inhibitor equation; K is Ki,app. FXIIa as the enzyme follows from the text; it is not printed in the panel [right panel]
T2 construct: the description speaks of human FXIIa; also called active Factor XII
T2 sequence (looked up) 1: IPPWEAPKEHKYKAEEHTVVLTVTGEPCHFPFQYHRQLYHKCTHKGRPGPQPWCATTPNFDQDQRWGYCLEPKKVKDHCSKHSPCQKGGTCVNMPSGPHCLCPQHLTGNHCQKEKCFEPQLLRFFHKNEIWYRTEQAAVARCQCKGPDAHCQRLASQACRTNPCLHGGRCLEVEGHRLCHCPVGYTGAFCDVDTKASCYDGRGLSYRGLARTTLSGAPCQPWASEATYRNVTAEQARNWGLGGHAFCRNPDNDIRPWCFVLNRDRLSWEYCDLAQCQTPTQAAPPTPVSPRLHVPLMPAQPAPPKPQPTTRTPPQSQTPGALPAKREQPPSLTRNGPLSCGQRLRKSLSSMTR
T2 sequence (looked up) 2: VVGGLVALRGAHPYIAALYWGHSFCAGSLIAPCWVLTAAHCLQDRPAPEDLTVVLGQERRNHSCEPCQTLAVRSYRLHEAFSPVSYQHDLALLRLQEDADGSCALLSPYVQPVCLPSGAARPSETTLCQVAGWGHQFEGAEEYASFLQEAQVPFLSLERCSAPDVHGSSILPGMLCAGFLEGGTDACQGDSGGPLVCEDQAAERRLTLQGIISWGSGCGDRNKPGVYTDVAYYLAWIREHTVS

Factor XIIa (FXIIa) [3] = target: T2, Factor XIIa (FXIIa); assay: enzyme inhibition assay, apparent Ki
plasma kallikrein (pKal) [4] = target: T1, plasma kallikrein (pKal); assay: enzyme inhibition assay, apparent Ki
Factor XIIa (FXIIa) [5] = target: T2, Factor XIIa (FXIIa); assay: enzyme inhibition, peptide substrate, tight-binding fit, Ki,app
Method: (§1) Varying concentrations of the bispecific antibodies were incubated with individual FXIIa and pKal samples, and the ability of these proteases to cleave a peptide substrate was monitored over time by measuring changes in the fluorescence of a chemical moiety covalently attached to the peptide substrate. Slopes of this kinetic data are equivalent to enzymatic proteolytic rates, which are then plotted against the concentration of the inhibitor. The resulting plots are then fit to a tight binding inhibitor equation (Equation 1) by nonlinear regression to obtain apparent inhibition constants (Kᵢ^app).

plasma kallikrein (pKal) [6] = target: T1, plasma kallikrein (pKal); assay: as above
Method: as §1

plasma kallikrein (pKal) [7] = target: T1, plasma kallikrein (pKal); assay: enzyme inhibition, corrected Ki,app, control plate 1
plasma kallikrein (pKal) [8] = target: T1, plasma kallikrein (pKal); assay: pKal enzyme inhibition, Ki,app, control
plasma kallikrein (pKal) [9] = target: T1, plasma kallikrein (pKal); assay: enzyme inhibition, corrected Ki,app, control plate 2
plasma kallikrein (pKal) [10] = target: T1, plasma kallikrein (pKal); assay: enzyme inhibition of human pKal: rate (F/s) against antibody concentration (0 to 10 nM), fit to the tight-binding equation printed in the panel; K is Ki,app. Columns are coefficient, std. error, t, P. The unit is taken from the concentration axis '[nM]' [CONT'D) B. (left panel]

B1: 620I-X0177-A01 (bispecific antibody, human IgG1, kappa)
heavy: not shown
light: DIQMTQSPSTLSASVGDRVTITCRASQSISSWLAWYQQKPGKAPKLLIYKASTLESGVPSRFSGSGSGTEFTLTISSLQPDDFATYYCQQYNTYWTFGQGTKVEIKRTVAAPSVFIFPPSDEQLKSGTASVVCLLNNFYPREAKVQWKVDNALQSGNSQESVTEQDSKDSTYSLSSTLTLSKADYEKHKVYACEVTHQGLSSPVTKSFNRGEC
notes: 620I-X0136-D12 with germlined, gene-optimized scFv and VH44-VL100 disulfide; also called 620I-X0173-A11; 620I-X0136-D12 with H44/L100 engineered disulfide bond
- Ki (plasma kallikrein (pKal) [1]): 0.39 nM
- Ki (Factor XIIa (FXIIa) [2]): 0.0726 nM
- Ki (Factor XIIa (FXIIa) [3]): 0.073 nM
- Ki (plasma kallikrein (pKal) [4]): 0.389 nM

B2: X0122-C01 (bispecific antibody)
heavy: not shown
light: DIQMTQSPSTLSASVGDRVTITCRASQSISSWLAWYQQKPGKAPKLLIYKASTLESGVPSRFSGSGSGTEFTLTISSLQPDDFATYYCQQYNTYWTFGQGTKVEIKRTVAAPSVFIFPPSDEQLKSGTASVVCLLNNFYPREAKVQWKVDNALQSGNSQESVTEQDSKDSTYSLSSTLTLSKADYEKHKVYACEVTHQGLSSPVTKSFNRGEC
notes: also called X122-C01
- Ki (Factor XIIa (FXIIa) [5]): 5.69 nM
- Ki (plasma kallikrein (pKal) [6]): 0.161 nM

B3: DX-2930 (antibody, human IgG1, kappa, V domains shown)
VH: EVQLLESGGGLVQPGGSLRLSCAASGFTFSHYIMMWVRQAPGKGLEWVSGIYSSGGITVYADSVKGRFTISRDNSKNTLYLQMNSLRAEDTAVYYCAYRRIGVPRRDEFDIWGQGTMVTVSS
VL: DIQMTQSPSTLSASVGDRVTITCRASQSISSWLAWYQQKPGKAPKLLIYKASTLESGVPSRFSGSGSGTEFTLTISSLQPDDFATYYCQQYNTYWTFGQGTKVEIKR
notes: Anti-pKal IgG1; also called H03
- Ki (plasma kallikrein (pKal) [7]): 0.16 nM
- Ki (plasma kallikrein (pKal) [8]): 0.127 nM and 0.131 nM and 0.151 nM
- Ki (plasma kallikrein (pKal) [9]): 0.138 nM
- Ki (plasma kallikrein (pKal) [10]): 0.202 nM
